Target: PTH receptor 1 on ROS 17/2.8 rat osteoblast cells (rat) (UniProt P25961)
Test: cell-based or functional assay

UniProt P25961, sequence (P25961 27-591): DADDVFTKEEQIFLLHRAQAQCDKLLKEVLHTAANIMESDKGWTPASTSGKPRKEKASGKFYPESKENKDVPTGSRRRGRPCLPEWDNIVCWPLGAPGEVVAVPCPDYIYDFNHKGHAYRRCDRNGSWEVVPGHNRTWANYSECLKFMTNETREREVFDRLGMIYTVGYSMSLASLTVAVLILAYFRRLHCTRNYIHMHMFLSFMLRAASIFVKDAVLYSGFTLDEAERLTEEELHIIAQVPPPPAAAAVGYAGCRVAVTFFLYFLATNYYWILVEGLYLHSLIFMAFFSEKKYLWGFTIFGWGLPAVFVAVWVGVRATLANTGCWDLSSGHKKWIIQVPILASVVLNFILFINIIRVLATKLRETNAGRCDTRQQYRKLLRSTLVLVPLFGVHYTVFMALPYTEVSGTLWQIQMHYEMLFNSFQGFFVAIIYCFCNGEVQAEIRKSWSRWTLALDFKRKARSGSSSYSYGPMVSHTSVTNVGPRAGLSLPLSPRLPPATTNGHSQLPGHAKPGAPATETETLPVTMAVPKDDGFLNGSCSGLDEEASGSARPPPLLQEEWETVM

human PTH (1-34) (from UniProt P01270 32-65) (peptide)
PAIGB expression (fold induction): 6 fold

Reference: patent US20040146906A1
